PMC11040377

Target: Lag3 (lymphocyte-activation gene 3), on transfected SH-SY5Y cells (not stated (human or mouse cDNA cloned)) (UniProt Q61790)
Test: cell surface binding assay (streptavidin-alkaline phosphatase staining); SH-SY5Y cells transfected with Lag3 or its deletion mutants; biotin-labelled ligand at different concentrations (monomer equivalent) in DMEM with 10% FBS, 2 h at RT; washed, fixed, bound biotin detected with streptavidin-AP and BCIP/NBT; intensity by ImageJ, KD by GraphPad Prism

Lag3 (lymphocyte-activation gene 3), on transfected SH-SY5Y cells (not stated (human or mouse cDNA cloned)), sequence (Q61790 24-521): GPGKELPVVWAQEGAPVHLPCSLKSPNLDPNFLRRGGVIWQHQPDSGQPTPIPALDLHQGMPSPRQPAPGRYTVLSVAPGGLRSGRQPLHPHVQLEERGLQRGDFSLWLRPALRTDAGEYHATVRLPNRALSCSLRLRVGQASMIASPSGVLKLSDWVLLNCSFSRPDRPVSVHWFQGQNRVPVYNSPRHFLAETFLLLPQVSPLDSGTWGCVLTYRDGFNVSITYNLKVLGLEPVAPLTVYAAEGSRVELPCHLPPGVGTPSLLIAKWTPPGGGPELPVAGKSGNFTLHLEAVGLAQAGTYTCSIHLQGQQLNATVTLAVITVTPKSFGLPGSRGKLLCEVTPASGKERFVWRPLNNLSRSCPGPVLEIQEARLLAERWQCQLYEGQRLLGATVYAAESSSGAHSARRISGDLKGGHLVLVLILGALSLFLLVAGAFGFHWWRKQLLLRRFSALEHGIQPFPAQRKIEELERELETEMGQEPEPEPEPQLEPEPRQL

Kd: 227 nM
Substance: Tau PFF derived from PSP (progressive supranuclear palsy) seeds
